T1: mouse SIRPA_C57BL/6 (mouse (C57BL/6), UniProt P97797 32-513)
T1 construct: FLAG-tagged (pFLAG V5-DEST), on 293α cells
T1 sequence: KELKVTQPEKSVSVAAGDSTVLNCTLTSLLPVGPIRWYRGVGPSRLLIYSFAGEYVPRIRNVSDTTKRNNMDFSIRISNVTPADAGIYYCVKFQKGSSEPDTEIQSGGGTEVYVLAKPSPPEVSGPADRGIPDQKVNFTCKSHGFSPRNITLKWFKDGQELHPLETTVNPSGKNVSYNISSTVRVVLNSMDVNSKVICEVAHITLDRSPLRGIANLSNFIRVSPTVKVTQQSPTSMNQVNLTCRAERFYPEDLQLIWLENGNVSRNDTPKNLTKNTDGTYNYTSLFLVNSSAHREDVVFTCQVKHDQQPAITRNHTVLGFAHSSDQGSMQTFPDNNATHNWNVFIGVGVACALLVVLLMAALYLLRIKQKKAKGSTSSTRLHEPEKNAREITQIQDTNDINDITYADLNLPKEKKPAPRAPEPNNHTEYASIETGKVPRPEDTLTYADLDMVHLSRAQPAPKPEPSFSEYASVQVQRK

T2: mouse SIRPA_NOD (mouse (NOD), UniProt P97797 32-513)
T2 construct: FLAG-tagged (pFLAG V5-DEST), on 293α cells; also called NOD SCID
T2 chain: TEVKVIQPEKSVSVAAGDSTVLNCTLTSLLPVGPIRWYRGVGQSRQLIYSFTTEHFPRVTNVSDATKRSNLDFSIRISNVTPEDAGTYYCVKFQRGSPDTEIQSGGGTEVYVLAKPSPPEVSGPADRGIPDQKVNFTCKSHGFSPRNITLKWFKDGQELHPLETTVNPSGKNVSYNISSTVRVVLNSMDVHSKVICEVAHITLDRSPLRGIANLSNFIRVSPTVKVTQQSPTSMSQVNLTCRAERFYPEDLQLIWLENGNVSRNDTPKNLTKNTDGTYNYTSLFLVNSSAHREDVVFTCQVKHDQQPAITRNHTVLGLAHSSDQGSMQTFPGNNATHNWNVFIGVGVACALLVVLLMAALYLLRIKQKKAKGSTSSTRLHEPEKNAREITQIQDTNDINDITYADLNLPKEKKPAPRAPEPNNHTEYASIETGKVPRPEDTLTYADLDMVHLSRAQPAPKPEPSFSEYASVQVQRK

T3: mouse SIRPA_129 (mouse (129), UniProt P97797 32-513)
T3 construct: FLAG-tagged (pFLAG V5-DEST), on 293α cells; also called 129sv
T3 chain: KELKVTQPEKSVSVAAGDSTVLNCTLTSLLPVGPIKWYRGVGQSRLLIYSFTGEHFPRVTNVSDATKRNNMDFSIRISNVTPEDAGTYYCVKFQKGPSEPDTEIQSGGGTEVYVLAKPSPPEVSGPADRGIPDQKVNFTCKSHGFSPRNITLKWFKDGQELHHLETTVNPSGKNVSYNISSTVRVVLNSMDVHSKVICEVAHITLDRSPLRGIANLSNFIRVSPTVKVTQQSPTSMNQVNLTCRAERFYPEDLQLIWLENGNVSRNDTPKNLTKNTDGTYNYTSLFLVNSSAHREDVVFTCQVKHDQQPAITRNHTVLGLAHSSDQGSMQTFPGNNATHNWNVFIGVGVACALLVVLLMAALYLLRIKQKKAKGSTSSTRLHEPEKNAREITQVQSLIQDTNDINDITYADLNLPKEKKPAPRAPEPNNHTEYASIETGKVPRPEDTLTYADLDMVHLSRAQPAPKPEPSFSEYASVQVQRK

T4: mouse SIRPA BALB/c (mouse (BALB/c), UniProt P97797 35-513)
T4 construct: FLAG-tagged (pFLAG V5-DEST), on 293α cells
T4 chain: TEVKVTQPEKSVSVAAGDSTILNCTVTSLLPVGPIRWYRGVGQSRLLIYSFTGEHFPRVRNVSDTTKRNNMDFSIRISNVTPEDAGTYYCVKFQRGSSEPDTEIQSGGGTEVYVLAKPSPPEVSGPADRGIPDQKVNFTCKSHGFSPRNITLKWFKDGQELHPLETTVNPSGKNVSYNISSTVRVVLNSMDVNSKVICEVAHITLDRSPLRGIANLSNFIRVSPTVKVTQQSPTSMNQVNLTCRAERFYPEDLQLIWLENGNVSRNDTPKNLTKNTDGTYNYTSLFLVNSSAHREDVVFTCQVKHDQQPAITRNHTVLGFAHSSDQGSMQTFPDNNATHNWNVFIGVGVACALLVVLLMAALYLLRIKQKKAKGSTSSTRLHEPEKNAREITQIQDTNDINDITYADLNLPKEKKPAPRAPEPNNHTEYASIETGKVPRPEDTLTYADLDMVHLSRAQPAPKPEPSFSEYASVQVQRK

T5: human SIRPA_V4 (human, UniProt P78324 31-504)
T5 construct: FLAG-tagged (pFLAG V5-DEST), on 293α cells; also called human SIRPA Variant 4
T5 chain: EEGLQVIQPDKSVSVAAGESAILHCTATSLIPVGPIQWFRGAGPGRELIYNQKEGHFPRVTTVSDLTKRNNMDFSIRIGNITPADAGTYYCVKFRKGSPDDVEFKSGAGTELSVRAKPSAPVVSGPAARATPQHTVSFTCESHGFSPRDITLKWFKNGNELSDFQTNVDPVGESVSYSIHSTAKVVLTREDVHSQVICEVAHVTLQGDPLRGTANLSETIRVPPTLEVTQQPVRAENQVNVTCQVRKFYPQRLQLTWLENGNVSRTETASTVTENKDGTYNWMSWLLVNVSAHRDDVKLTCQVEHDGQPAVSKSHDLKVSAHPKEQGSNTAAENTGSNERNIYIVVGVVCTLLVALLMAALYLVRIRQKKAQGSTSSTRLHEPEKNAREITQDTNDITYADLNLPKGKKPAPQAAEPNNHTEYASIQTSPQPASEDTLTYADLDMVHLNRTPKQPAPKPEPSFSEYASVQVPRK

B1: rat anti-human SIRPA monoclonal antibody F63 (antibody, V domains shown)
VH: QVQLKESGPGLVQPSETLSLTCTVSGFSLASYSLSWVRQPSGKGPEWMGRMYYDGDTAYNSALKSRLSISRDTSKNQVFLKMNSLQTDDTGTYYCTRDRSMFGTDYPHWYFDFWGPGTMVTVSS
VL: QFTLTQPKSVSGALRSTITIPCERSSGDIGDSYVSWYQRHLGRPPINVIYADDQRPSEVSDRFSGSIDSSSNSASLTITNLQMDDEADYFCQSYDSKIDIFGGGTKLTVL
notes: Rat IgG2a/lambda purified from hybridoma
B2: rat anti-human SIRPA monoclonal antibody F44 (antibody, V domains shown)
VH: EVQLVESGGGLVQPGRSLKLSCAASGFTFSNYYMAWVRQAPTKGLEWVTYITTGGGSTYFRDSVKGRFTISRDNAESTLYLQMDSLRSEDTATYYCTAANYGGSYFDYWGQGVMVTVSS
VL: DVQMTQSPSNLAASPGESVSINCKASKSISKYLAWYQQKPGKANKLLIYSGSTLQSGTPSRFSGSGSGTDFTLTIRNLEPEDFGLYYCQQHNEYPPTFGAGTKLELK
notes: Rat IgG2a/kappa purified from hybridoma

What was measured:
mouse SIRPA_C57BL/6 = target: T1, mouse SIRPA_C57BL/6; assay: cell-based ELISA, transfected 293α cells
Protocol: (§1) After the culture supernatant of 293α cells into which the pFLAG V5-DEST-monkey SIRPA or pFLAG V5-DEST-mouse SIRPA expression vector was introduced and the pFLAG V5-DEST-introduced 293α cells prepared in Example 1)-5-2 was removed, binding to monkey or mouse SIRPA was evaluated in the same manner as for the binding activity of human SIRPA.

mouse SIRPA_NOD = target: T2, mouse SIRPA_NOD; assay: cell-based ELISA, transfected 293α cells
Protocol: as §1

mouse SIRPA_129 = target: T3, mouse SIRPA_129; assay: cell-based ELISA, transfected 293α cells
Protocol: as §1

mouse SIRPA BALB/c = target: T4, mouse SIRPA BALB/c; assay: cell-based ELISA, transfected 293α cells
Protocol: as §1

human SIRPA_V8 = target: T6, human SIRPA_V8 (human, UniProt P78324 31-504); assay: cell-based ELISA, transfected 293α cells, 10,000 ng/mL, normalized to FLAG
T6 construct: FLAG-tagged (pFLAG V5-DEST), on 293α cells; also called human SIRPA Variant 8
Protocol: (§2) After the culture supernatant of 293α cells into which the vector expressing 10 different variant proteins prepared in Example 2)-1-1 was introduced was removed, 50 μL per well of a purified rat anti-human SIRPA antibody diluted with 5% FBS-containing PBS to a final concentration of 10,000 ng/ml was added to each of pFLAG V5-DEST-SIRPA_V1-V10 and pFLAG V5-DEST-introduced 293α cells, and the mixture was allowed to stand at 4° C. for one hour. Further, 50 μL per well of an anti-FLAG M2 antibody (SIGMA) diluted with 5% FBS-containing PBS to a final concentration of 10,000 ng/mL was added to a well for detecting expression of each SIRPA variant, and the mixture was allowed to stand at 4° C. for one hour. Thereafter, binding to 10 different human SIRPA variants was evaluated in the same manner as in the evaluation of the binding activity of the human SIRPA described in 1)-6-2. Binding of the rat anti-human SIRPA antibodies to each variant was standardized by expression of the FLAG tag.

human SIRPA_V4 = target: T5, human SIRPA_V4; assay: as above
Protocol: as §2

| Binder | binding result (mouse SIRPA_C57BL/6) | binding result (mouse SIRPA_NOD) | binding result (mouse SIRPA_129) | binding result (mouse SIRPA BALB/c) | binding result (human SIRPA_V8) | binding result (human SIRPA_V4) |
| --- | --- | --- | --- | --- | --- | --- |
| B1 | no binding | no binding | no binding | no binding | binds | binds |
| B2 | no binding | no binding | no binding | no binding | binds | binds |

From patent US20260098102A1 (NATIONAL UNIVERSITY CORPORATION KOBE UNIVERSITY, published 2026)
